# Laboratory results published in publication PMC2710861.
# B1: 25-mer mixed sequence ssDNA, 5'-biotin (ssDNA)
# DNA: GCTAGCTCAATTCATCGACAAACCT
# B2: 44-mer mixed sequence ssDNA (ssDNA)
# DNA: GCTAGCTCAATTCATCGACAAACCTCCTCGCTCAATTCATAGTC
# B3: 25-mer mixed sequence ssDNA, 3'-biotin (ssDNA)
# DNA: GCTAGCTCAATTCATCGACAAACCT
# Legend:
# Rad52 [1] = biological target: T1, Rad52 (human, UniProt P43351 1-418); experiment: EMSA
# T1 sequence: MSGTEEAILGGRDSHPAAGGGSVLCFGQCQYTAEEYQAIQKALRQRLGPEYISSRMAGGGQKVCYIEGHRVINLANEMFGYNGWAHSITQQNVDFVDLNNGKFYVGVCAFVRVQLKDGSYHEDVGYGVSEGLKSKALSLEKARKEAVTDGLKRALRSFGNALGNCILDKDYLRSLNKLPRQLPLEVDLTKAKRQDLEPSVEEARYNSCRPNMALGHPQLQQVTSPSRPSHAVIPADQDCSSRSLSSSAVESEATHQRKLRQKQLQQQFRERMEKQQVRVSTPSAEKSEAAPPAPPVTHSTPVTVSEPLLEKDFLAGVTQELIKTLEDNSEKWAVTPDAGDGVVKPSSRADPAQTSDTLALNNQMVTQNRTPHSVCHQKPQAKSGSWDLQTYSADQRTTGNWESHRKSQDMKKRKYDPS
# Rad52 [2] = biological target: T1, Rad52; experiment: SEC-MALS
# Rad52 [3] = biological target: T1, Rad52; experiment: UV cross-linking
# [4] = biological target: RPA heterotrimer (RPA70/RPA32/RPA14) (human, UniProt P27694;P15927;P35244 1-616;1-270;1-121); experiment: EMSA
# RPA heterotrimer (RPA70/RPA32/RPA14), sequence (P27694 whole entry, chain 1 of 3): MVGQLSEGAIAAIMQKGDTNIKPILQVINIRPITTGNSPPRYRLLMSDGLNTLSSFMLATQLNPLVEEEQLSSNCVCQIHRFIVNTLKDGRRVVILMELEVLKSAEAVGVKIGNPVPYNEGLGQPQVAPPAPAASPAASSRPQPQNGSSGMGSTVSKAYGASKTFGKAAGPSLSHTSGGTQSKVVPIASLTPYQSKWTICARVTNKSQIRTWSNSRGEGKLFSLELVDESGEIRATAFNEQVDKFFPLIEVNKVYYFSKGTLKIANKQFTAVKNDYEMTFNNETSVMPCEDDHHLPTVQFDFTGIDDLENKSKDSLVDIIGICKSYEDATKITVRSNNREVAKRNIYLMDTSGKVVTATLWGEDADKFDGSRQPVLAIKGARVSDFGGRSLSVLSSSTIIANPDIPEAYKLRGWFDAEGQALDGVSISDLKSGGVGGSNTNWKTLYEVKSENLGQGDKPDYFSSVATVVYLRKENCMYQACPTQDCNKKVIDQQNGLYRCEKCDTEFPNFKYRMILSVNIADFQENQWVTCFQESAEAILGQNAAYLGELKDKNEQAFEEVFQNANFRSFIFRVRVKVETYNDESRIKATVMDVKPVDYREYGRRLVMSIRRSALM
# RPA heterotrimer (RPA70/RPA32/RPA14), sequence (P15927 whole entry, chain 2 of 3): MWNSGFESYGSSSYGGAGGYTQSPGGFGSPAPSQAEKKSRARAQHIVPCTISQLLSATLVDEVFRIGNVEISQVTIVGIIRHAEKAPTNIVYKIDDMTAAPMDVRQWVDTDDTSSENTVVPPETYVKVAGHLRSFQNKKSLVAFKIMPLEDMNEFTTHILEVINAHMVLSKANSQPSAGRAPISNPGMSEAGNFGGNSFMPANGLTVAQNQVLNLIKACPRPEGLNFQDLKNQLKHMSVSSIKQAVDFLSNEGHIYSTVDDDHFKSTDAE
# RPA heterotrimer (RPA70/RPA32/RPA14), sequence (P35244 whole entry, chain 3 of 3): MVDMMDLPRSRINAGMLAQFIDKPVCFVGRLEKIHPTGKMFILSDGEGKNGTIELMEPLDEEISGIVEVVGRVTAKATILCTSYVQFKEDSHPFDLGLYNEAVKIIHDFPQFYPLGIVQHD
# [5] = biological target: RPA heterotrimer (RPA70/RPA32/RPA14);Rad52 (human;human, UniProt P27694;P15927;P35244;P43351 1-616;1-270;1-121;1-418, |); experiment: SEC-MALS and UV cross-linking
# RPA heterotrimer (RPA70/RPA32/RPA14);Rad52, sequence (P27694 whole entry, chain 1 of 3): as the sequence (P27694 whole entry, chain 1 of 3) above
# RPA heterotrimer (RPA70/RPA32/RPA14);Rad52, sequence (P15927 whole entry, chain 2 of 3): as the sequence (P15927 whole entry, chain 2 of 3) above
# RPA heterotrimer (RPA70/RPA32/RPA14);Rad52, sequence (P35244 whole entry, chain 3 of 3): as the sequence (P35244 whole entry, chain 3 of 3) above
binder,measurement,setting,value
B1,binding result,Rad52 [1],binds
B2,binding result,Rad52 [2],binds
B3,binding result,Rad52 [3],binds
same,binding result,[4],binds
same,binding result,[5],binds
